Results: article PMC8617172, “Architecture of the outer-membrane core complex from a conjugative type IV secretion system” (Nature Communications, 2021)

Experiments:
Assay in all cases: cryo-EM structure; OMCC of TraB-strep, TraK and TraV co-expressed in E. coli, purified from membranes in 50 mM Tris-HCl pH 7.5, 300 mM NaCl, 0.23% w/v LDAO; 0.1 mg/ml on Lacey grids with ultrathin carbon; single-particle maps with C17 (inner ring, 3.3 Å), C13 (outer ring, 3.4 Å) and C1 (5.7 Å) symmetry
[1] = target: TraB (pED208 F-T4SS outer-membrane core complex protein, VirB10 homologue), strep-tagged (E. coli (plasmid pED208))
[2] = target: TraV (pED208 F-T4SS outer-membrane core complex lipoprotein, VirB7 homologue) (E. coli (plasmid pED208)) (UniProt P41069)
[3] = target: the molecule itself

TraV (pED208 F-T4SS outer-membrane core complex lipoprotein, VirB7 homologue) (from UniProt P41069 19-171) (natural protein)
stoichiometry N (TraV per TraB) [1]: 1.53 | stoichiometry N [2]: 26 chains

TraB (pED208 F-T4SS outer-membrane core complex protein, VirB10 homologue), strep-tagged (natural protein)
stoichiometry N [1]: 17 chains

TraK (pED208 F-T4SS outer-membrane core complex protein, VirB9 homologue) (natural protein)
stoichiometry N (TraK per TraB) [1]: 1.53

B1: TraK (pED208 F-T4SS outer-membrane core complex protein, VirB9 homologue) (natural protein)
chain: AQSPATISLPQGGQFRLSISNTDPNMIFIPGDKVTAITAPGGMLADKRLTTAGGVLFTSVATRTFTIFVETALGQTFSVVATPVKGEGRVYRLMSAEPPSRPETRKWETAQAYEKLLISLNRAVLTGDIPDGYGEVKPLSDGIRLPGGFSVTPLKAWAGDQLRADRYELRNANTWGVALREQDFWKPGVRAVMFDNNAQTLMGGGRMTVTVIRGNG
notes: TraK1 and TraK2 are two conformations of the same chain; 26 copies in the whole OMCC; also called TraK (VirB9); TraK1
stoichiometry N [3]: 26 chains
